The labels stand for the following.
B1: 365_B12 (antibody, V domains shown)
VH: EVQLLESGGGLVQPGGSLRLSCAASGFTFSDYGMHWVRQAPGKGLEWVSGINYNGGYTSYADSVKGRFTISRDNSKNTLYLQMNSLRAEDTAVYYCARAATWHDTHLDYWGQGTLVTVSS
VL: DIQMTQSPSSLSASVGDRVTITCRASQSISTYVNWYQQKPGKAPKLLIYAVTSLHSGVPSRFSGSGSGTDFTLTISSLQPEDFATYYCQQSYDNPLTFGGGTKVEIK
B2: 369_D06 (antibody, V domains shown)
VH: B1 VH with S30D, D31S, G33S, H35N, S59G, A99S
VL: B1 VL with S30L, V33L, V51A, L54R, H55A, D93E, N94T
B3: 369_F04 (antibody, V domains shown)
VH: B1 VH with D31S, H35N, A99S
VL: B1 VL with S30I, T31S, V51A, L54R
B4: 366_G02 (antibody, V domains shown)
VH: B1 VH with S30D, D31S, G50S
VL: B1 VL with S30L, V33L, V51A, L54R, Y92D
B5: 365_D04 (antibody, V domains shown)
VH: B1 VH with S49A, T58K, T101N, H106A
VL: B1 VL with T31S, V33L, L47V, L54R, H55A, N94L
B6: 367_A11 (antibody, V domains shown)
VH: B1 VH with D31S, A99S
VL: B1 VL with S30L, T31S, L47V, V51T, H55A, D93N, N94S
B7: 366_E07 (antibody, V domains shown)
VH: B1 VH with S30D, D31S, S49A, H106A
VL: B1 VL with S30L, V33L, L47V, V51A, L54R, Y92D, D93N, N94S
B8: 365_D03 (antibody, V domains shown)
VH: B1 VH with S30D, G33S, S49A, G50S, T58K
VL: B1 VL with S30V, T31S, V33L, L47V, V51A, L54R, H55A, N94S
B9: 366_C05 (antibody, V domains shown)
VH: B1 VH with S30D, G50S, S59G
VL: B1 VL with S30I, T31S, V33L, L47V, V51A, L54R, H55A, N94S
B10: 365_G06 (antibody, V domains shown)
VH: B1 VH with S30D, D31S, S49A
VL: B1 VL with S30L, T31S, V33L, V51A, H55A, Y92D, D93S, N94T
B11: 367_C12 (antibody, V domains shown)
VH: B1 VH with D31S
VL: B1 VL with S30L, T31S, V51T, L54R, D93E, N94S
B12: 367_C06 (antibody, V domains shown)
VH: B1 VH with S30D, D31S, G33S, S49A, G50S, T58K
VL: B1 VL with S30L, V33L, L47V, V51A, N94T
B13: 366_H01 (antibody, V domains shown)
VH: B1 VH with S30D, G33S, S49A, G50N
VL: B1 VL with S30L, V33L, L47V, V51T, L54R, D93E, N94S
B14: 365_F10 (antibody, V domains shown)
VH: B1 VH with S30D
VL: B1 VL with S30V, V51A, L54R, H55A, D93E, N94L
B15: 369_A01 (antibody, V domains shown)
VH: B1 VH with S30D, D31S, G33S, H35N, G55S, T58K, S59G, A99S
VL: B1 VL with S30L, L47V, V51A, H55A, D93E, N94L
B16: 365_D08 (antibody, V domains shown)
VH: B1 VH with S30D, D31S, G33S, G50S
VL: B1 VL with S30I, V51A, L54R, H55A, N94T
B17: 366_B09 (antibody, V domains shown)
VH: B1 VH with G50S, G55S, T58K
VL: B1 VL with S30L, V33L, L47V, V51A, L54R, N94S

Changes are numbered by the printed parent chain.

The target in this test is human Fc (human). As to the kind of experiment: ELISA, negative control. Background: An ELISA detects its analyte on a solid surface through an enzyme-linked reagent.
In the case of B1, the optical density was determined as 0.307 OD.

In turn, B2 displayed an optical density of 0.324 OD.

For B3, the optical density came out at 0.369 OD.

As for B4, the optical density is 0.357 OD.

Consider B5, for which the optical density stood at 0.316 OD.

For the molecule B6, the optical density is 0.3 OD.

The molecule B7 yielded an optical density of 0.262 OD.

In turn, B8 gave an optical density of 0.346 OD.

With B9, the optical density was 0.269 OD.

B10: the optical density turned out to be 0.32 OD.

B11 returned an optical density of 0.31 OD.

The molecule B12 had an optical density of 0.29 OD.

B13: the optical density worked out at 0.384 OD.

B14 came in with an optical density of 0.386 OD.

Molecule B15 registered an optical density of 0.456 OD.

Molecule B16 came in with an optical density of 0.35 OD.

In turn, B17 yielded an optical density of 0.283 OD.
